Results on one molecule are retold here after publication PMC9236607, “TUBA1A tubulinopathy mutants disrupt neuron morphogenesis and override XMAP215/Stu2 regulation of microtubule dynamics” (eLife, 2022).

The target of this test is T1, purified budding yeast tubulin heterodimer, Tub1-WT (internal 6X-His) with Tub2 (S. cerevisiae, UniProt P09733 1-447; P02557 1-457).
T1 construct: alpha-tubulin Tub1, S. cerevisiae, from pRS426-GAL-Tub1-internal 6X-His (Johnson et al., 2011); beta-tubulin Tub2, S. cerevisiae, untagged, from pRS424-GAL-Tub2 (Johnson et al., 2011); also called WT tubulin; WT yeast tubulin; source: S. cerevisiae JEL1 (protease deficient), overexpressed from GAL plasmids, purified (His60 Ni column, HiTrap Q)
Description: pull-down; 100 nM tubulin mixed with 9.8 nM to 5 µM GST-TOG1/2 at 4°C for 15 min, then glutathione magnetic agarose beads, 4°C, 1 hr; beads equilibrated in 125 mM Tris-HCl, 150 mM KCl, 1 mM DTT, 1 mM EDTA, pH 7.4; unbound tubulin left in the supernatant read by western blot for α- and β-tubulin. Conditions: both partners purified.

T1 sequence (P09733 whole entry, chain 1 of 2): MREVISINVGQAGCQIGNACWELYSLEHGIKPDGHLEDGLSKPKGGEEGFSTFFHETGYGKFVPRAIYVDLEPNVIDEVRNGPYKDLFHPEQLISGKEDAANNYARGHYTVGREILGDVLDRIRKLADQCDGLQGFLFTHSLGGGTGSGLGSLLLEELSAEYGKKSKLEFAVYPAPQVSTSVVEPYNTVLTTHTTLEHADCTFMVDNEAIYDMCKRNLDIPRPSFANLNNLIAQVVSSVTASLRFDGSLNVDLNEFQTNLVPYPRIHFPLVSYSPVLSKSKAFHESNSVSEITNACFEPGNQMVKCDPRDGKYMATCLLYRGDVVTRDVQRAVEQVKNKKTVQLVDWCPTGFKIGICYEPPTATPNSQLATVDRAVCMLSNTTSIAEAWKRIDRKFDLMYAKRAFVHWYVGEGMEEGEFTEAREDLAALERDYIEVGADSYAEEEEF
T1 sequence (P02557 whole entry, chain 2 of 2): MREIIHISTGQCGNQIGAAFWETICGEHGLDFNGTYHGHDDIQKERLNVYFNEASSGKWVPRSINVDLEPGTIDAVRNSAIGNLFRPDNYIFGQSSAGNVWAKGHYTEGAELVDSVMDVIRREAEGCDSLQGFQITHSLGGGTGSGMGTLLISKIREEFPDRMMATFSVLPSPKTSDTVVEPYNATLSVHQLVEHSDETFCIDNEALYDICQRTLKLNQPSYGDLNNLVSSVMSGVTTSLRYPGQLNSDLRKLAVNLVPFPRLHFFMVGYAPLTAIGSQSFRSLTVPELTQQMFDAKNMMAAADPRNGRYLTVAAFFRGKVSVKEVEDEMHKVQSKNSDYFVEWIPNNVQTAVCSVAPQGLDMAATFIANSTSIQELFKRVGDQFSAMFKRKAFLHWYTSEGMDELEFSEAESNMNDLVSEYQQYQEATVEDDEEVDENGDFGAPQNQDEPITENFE

B1: GST-TOG1/2 (the two TOG domains of Stu2 fused to a GST tag, Stu2 1-590) (domain or fragment, S. cerevisiae, UniProt P46675 1-590, looked up)
chain: MSGEEEVDYTTLPLEERLTYKLWKARLEAYKELNQLFRNSVGDISRDDNIQIYWRDPTLFAQYITDSNVVAQEQAIVALNSLIDAFASSSLKNAHNITLISTWTPLLVEKGLTSSRATTKTQSMSCILSLCGLDTSITQSVELVIPFFEKKLPKLIAAAANCVYELMAAFGLTNVNVQTFLPELLKHVPQLAGHGDRNVRSQTMNLIVEIYKVTGNNSDLLEEILFKKLKPIQVKDLHKLFAKVGDEPSSSKMLFEWEKRELEKKRSQEEEARKRKSILSNDEGEYQIDKDGDTLMGMETDMPPSKQQSGVQIDTFSMLPEETILDKLPKDFQERITSSKWKDRVEALEEFWDSVLSQTKKLKSTSQNYSNLLGIYGHIIQKDANIQAVALAAQSVELICDKLKTPGFSKDYVSLVFTPLLDRTKEKKPSVIEAIRKALLTICKYYDPLASSGRNEDMLKDILEHMKHKTPQIRMECTQLFNASMKEEKDGYSTLQRYLKDEVVPIVIQIVNDTQPAIRTIGFESFAILIKIFGMNTFVKTLEHLDNLKRKKIEETVKTLPNFSIASGSTHSTIETNKQTGPMENKFLLK
notes: Stu2 (yeast homologue of XMAP215), S. cerevisiae, residues 1-590 with the TOG1 and TOG2 domains, from pGEX-6P-1 Stu2 1-590 (Widlund et al., 2012); also called Stu2 TOG1/2 domains; Stu2 TOG1/TOG2 domains; source: E. coli BL21, purified (GSTrap HP, eluted with reduced glutathione); not shown: GST, N-terminal, kept
On to B1, for which the binding result was “binds”.
